The record followed here is patent publication EP1313853B1.

The experiment addresses Fas (Apo-1, CD95) (human) (UniProt P25445). Kind of experiment: cell-based or functional assay.
Chain of UniProt P25445 (P25445 26-335): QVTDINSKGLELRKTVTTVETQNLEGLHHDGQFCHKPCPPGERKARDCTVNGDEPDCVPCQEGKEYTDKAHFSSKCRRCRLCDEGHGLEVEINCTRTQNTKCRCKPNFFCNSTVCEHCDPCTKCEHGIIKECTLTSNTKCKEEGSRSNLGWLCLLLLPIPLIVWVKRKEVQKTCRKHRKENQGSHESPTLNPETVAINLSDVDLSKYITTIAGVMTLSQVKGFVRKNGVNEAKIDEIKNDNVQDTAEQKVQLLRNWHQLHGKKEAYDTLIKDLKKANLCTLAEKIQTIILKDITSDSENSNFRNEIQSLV

The substance “agonistic anti-Fas monoclonal antibodies (clone CH-11: Coulter-Immunotech, Marseille, France) (antibody)” registered a % INHIBITION of Jurkat human leukemia T cell proliferation (MTT), 0.02 µg/ml antibody, no sequence of 16%; a % INHIBITION of Jurkat human leukemia T cell proliferation (MTT), 0.2 µg/ml antibody, no sequence of 33%; a % INHIBITION of UMUC-3 bladder cancer cell proliferation (MTT), 0.02 µg/ml antibody, no sequence of 7%; a % INHIBITION of UMUC-3 bladder cancer cell proliferation (MTT), 0.2 µg/ml antibody, no sequence of 17%.
